Experiments:
[1] = target: Srs2 (Saccharomyces cerevisiae, UniProt P12954 1-1174); assay: EMSA
[2] = substrate: Nc1ncnc2c1ncn2[C@@H]1O[C@H](COP(=O)(O)OP(=O)(O)OP(=O)(O)O)[C@@H](O)[C@H]1O; assay: purified protein; details: saturating 56-mer ssDNA, 37°C, pH 7.6, 7 mM MgCl2, 100 mM NaCl

| Binder | binding result [1] | Km [2] | kcat [2] |
| --- | --- | --- | --- |
| forked DNA P1/P2 (dsDNA) DNA 1: AGAAGGTTTCGAATCAGAGGTAGGTGCCCGGCCTCCAACTTGCCGTATTCCTGGT DNA 2: ACCAGGAATACGGCAAGTTGGAGGCCGGGCTGGATGGAGACTAAGCTTTGGAAGT | binds |  |  |
| Srs2 (Saccharomyces cerevisiae S288C) (protein) MSSNNDLWLHLVSQLNTQQRAAALFDYTRGLQVIAGPGTGKTKVLTSRVAYLILHHHIHPRDIIVTTFTNKAANEMKERLQEMLRGAGVNISELLIGTFHSICLKILYRFGHLVDLQKDWRIIDEKEIDVILDDMIEKVPDQIRDYASSITRKVNLCMPSKNGDEWTIHPKLIKKQISKLKSNAILPEEYILDSNHDAALGYFYQIYQSELSKKNTLDFDDLLMYTFRLLTRVRVLSNIKHVLVDEFQDTNGIQLDLMFLFAKGNHHLSRGMTIVGDPDQSIYAFRNALAHNFLEMGRKCPIEYSTIILVENYRSSQKILNTSEILITQQNKGRQNRAPLRAQFDLDFPPVYMNFPAYFLEAPSLVRELLYLKALPNLFTFNDFAILVRQRRQIKRIESALIEHRIPYKIIRGHSFWDSKETRAMLNLLKLIFSPNDKHAILASLLYPARGLGPATGEKIKNALDTLATDVSCFQILKDISSKKIMLDIPTKGRSVIADFISMIENCQLLLQSTLLGGLSDLFDKLYELSGLKYEYLYKDGKKKNDQLEKSEPNLLNARHKNIELLKNYFLALLSKSESSDKEKNEAIKAATDEAEPIENKVITPKEYLRNFFNSLSLHSDAAEEEESESNKDAKIKREKNGFVTISTIHGAKGLEWPVVFIPGCEEGIIPCVFNDDKKDESEEDEEEDQENSKKDASPKKTRVLSVEDSIDEERRMFFVAQTRAKYLLYLSNTVTVEDVDRPRIASRFLTTDLIKAMSDSQKLFESTNSIKKLYRILNKKPPAEDDKLFSLDQLRKDYNQFIENRRERMIWQGIQMNDVYGIQLSRNKLLGSVSDFTSAADQLRLETQNSIFPQKKLIEKSRPSKINGNYAPKSRVKSPEKRYAPETTSFHSPTKKKVYAPQYVSTTNVPSRQEFHSSTGKNIPFLRREDRSITDISPRSSTRSLKGASPNKTSHMSDDLMRPSPTRKDKVTRNIHFATAGTFRIETQSNVDELHPPEYSNKSGQSLTSSEFSGFSSACSNSDQPTNLIEDINNELDLSDEELLNDISIERRRELLGSKKTKKIKPKTRNRKSKRGDKVKVEEVIDLKSEFEEDDSRNTTAAELLHNPDDTTVDNRPIISNAKFLADAAMKKTQKFSKKVKNEPASSQMDIFSQLSRAKKKSKLNNGEIIVID |  | 143 µM | 55.3 s⁻¹ |
